Laboratory results: publication PMC11602657, “Nap1 and Kap114 co-chaperone H2A-H2B and facilitate targeted histone release in the nucleus” (The Journal of Cell Biology, 2024)
Substitutions are numbered along the chain they refer to. Names may count otherwise. “And” between values parts separate entries of the source, which are not always exact repeats. Equal values may be shown once.

Experiments:
[1] = target: T1, MBP-Kap114 DDAA (D928A/D929A) (S. cerevisiae, UniProt P53067 1-1004, D928A | D929A); assay: pull-down; MBP-Kap114 (WT or mutant; or MBP alone) 1 µM immobilized on amylose resin, equimolar Nap1_(2) ± H2A-H2B (1 or 2 µM) ± Ran^GTP; Assay Buffer (20 mM HEPES pH 7.4, 150 mM NaCl, 2 mM MgCl2, 10% glycerol, 2 mM DTT), 30 min at 4°C; Coomassie-stained SDS-PAGE; conditions: both partners purified
T1 construct: Kap114, S. cerevisiae, h19loop mutant; source: E. coli BL21 Gold, purified; not shown: MBP, N-terminal, kept
T1 sequence (looked up): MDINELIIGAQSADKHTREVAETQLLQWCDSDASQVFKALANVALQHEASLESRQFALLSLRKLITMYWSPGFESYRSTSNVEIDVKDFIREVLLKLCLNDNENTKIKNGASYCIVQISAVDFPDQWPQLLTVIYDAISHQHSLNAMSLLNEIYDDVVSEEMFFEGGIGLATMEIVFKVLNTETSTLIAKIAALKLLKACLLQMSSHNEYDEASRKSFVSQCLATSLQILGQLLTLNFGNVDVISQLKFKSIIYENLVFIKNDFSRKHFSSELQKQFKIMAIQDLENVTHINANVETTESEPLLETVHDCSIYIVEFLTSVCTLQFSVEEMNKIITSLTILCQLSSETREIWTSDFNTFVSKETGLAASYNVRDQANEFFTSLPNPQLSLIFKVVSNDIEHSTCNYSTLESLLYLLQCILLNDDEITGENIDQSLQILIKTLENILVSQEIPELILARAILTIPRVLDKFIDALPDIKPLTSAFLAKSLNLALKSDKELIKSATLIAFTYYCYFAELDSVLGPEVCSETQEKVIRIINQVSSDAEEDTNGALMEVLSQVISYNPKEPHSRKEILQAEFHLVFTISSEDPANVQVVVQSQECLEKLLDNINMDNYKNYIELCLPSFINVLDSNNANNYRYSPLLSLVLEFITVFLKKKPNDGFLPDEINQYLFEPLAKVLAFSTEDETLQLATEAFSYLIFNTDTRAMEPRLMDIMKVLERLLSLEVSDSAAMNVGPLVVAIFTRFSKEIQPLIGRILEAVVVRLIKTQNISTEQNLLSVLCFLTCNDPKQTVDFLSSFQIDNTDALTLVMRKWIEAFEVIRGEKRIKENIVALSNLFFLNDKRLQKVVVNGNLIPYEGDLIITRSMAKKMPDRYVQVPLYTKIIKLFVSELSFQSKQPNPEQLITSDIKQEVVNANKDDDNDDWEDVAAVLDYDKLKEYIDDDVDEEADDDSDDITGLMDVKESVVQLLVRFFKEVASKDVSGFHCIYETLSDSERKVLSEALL

[2] = target: T2, MBP-Kap114 YDAA (Y939A/D942A) (S. cerevisiae, UniProt P53067 1-1004, Y939A | D942A); assay: as above; conditions: both partners purified
T2 construct: Kap114, S. cerevisiae, h19loop mutant; source: E. coli BL21 Gold, purified; not shown: MBP, N-terminal, kept
T2 sequence (looked up): T1 sequence (looked up) with A928D, A929D, Y939A, D942A

[3] = target: the molecule itself; assay: SEC-MALS; proteins alone or binary mixtures at the indicated molar ratios to 80 µM Kap114; Assay buffer without glycerol; Nap1 counted as dimer
Kap114 = target: T3, Kap114 (S. cerevisiae, UniProt P53067 1-1004); assay: as above; conditions: both partners purified
T3 construct: also called Sc Kap114; source: E. coli, expressed as GST-Kap114, purified (Glutathione Sepharose 4B, on-column TEV cleavage, SEC)
T3 sequence: T1 sequence (looked up) with A928D, A929D

B1: Nap1 FL (C200A, C249A, C272A) (natural protein, S. cerevisiae, UniProt P25293 1-417, looked up)
chain: MSDPIRTKPKSSMQIDNAPTPHNTPASVLNPSYLKNGNPVRAQAQEQDDKIGTINEEDILANQPLLLQSIQDRLGSLVGQDSGYVGGLPKNVKEKLLSLKTLQSELFEVEKEFQVEMFELENKFLQKYKPIWEQRSRIISGQEQPKPEQIAKGQEIVESLNETELLVDEEEKAQNDSEEEQVKGIPSFWLTALENLPIVADTITDRDAEVLEYLQDIGLEYLTDGRPGFKLLFRFDSSANPFFTNDILAKTYFYQKELGYSGDFIYDHAEGAEISWKDNAHNVTVDLEMRKQRNKTTKQVRTIEKITPIESFFNFFDPPKIQNEDQDEELEEDLEERLALDYSIGEQLKDKLIPRAVDWFTGAALEFEFEEDEEEADEDEDEEEDDDHGLEDDDGESAEEQDDFAGRPEQAPECKQS
notes: Nap1 (nucleosome assembly protein 1), S. cerevisiae, full length (FL), with C200A, C249A, C272A for specific labeling on 414C; pHAT4 vector, gift from Sheena D'Arcy; Counted as a dimer (Nap1_(2)) in all molar ratios; alone a mixture of dimers and tetramers; also called Nap1_(2); Nap1_(2) FL; source: E. coli BL21 gold, purified (Ni-NTA, TEV cleavage, HiTrap Q, Superdex S200)
B1 was tested, and the binding result [1] was “binds”, the binding result [2] was “binds” and the “stoichiometry N” value [3] was 2 and 4. The “stoichiometry N” value (Kap114) was 1.
